The values below come from patent US20250129166A1 (Five Prime, published 2025).

Substitutions are numbered along the chain they refer to.

B1: P1-068761_E30D_E32Y (antibody, human IgG1, kappa, V domains shown)
VH: EVQLVESGGGLVQPGKSLRLSCAASGFTLDDYAMHWVRQAPGKGLEWVSGINWNSEEIGYADSVKGRFTISRDNAKNSLYLQMNSLRTEDTALYYCAKVPGYSHGWIDAEDVWGQGTMVTVSS
VL: not shown
notes: also called P1-070876
B2: P1-068761_E32Y (antibody, human IgG1, kappa, V domains shown)
VH: B1 VH with D30E
VL: not shown
notes: also called P1-070866
B3: P1-068761_E56N_E100fF (antibody, human IgG1, kappa, V domains shown)
VH: B1 VH with D30E, Y32E, E57N, E110F
VL: not shown
notes: also called P1-070902
B4: P1-068761_E30D_E100fF (antibody, human IgG1, kappa, V domains shown)
VH: B1 VH with Y32E, E110F
VL: not shown
notes: also called P1-070896
B5: P1-068761_E32Y_E56N (antibody, human IgG1, kappa, V domains shown)
VH: B1 VH with D30E, E57N
VL: not shown
notes: also called P1-070884
B6: P1-068761_E55A_E100fF (antibody, human IgG1, kappa, V domains shown)
VH: B1 VH with D30E, Y32E, E56A, E110F
VL: not shown
notes: also called P1-070898
B7: P1-068761_E32Y_E55A (antibody, human IgG1, kappa, V domains shown)
VH: B1 VH with D30E, E56A
VL: not shown
notes: also called P1-070882
B8: P1-068761_H100G_E100fF (antibody, human IgG1, kappa, V domains shown)
VH: B1 VH with D30E, Y32E, H104G, E110F
VL: not shown
notes: also called P1-070880
B9: P1-068761_E32Y_E100fF (antibody, human IgG1, kappa, V domains shown)
VH: B1 VH with D30E, E110F
VL: not shown
notes: also called P1-070888
B10: P1-068761_E32Y_H100G (antibody, human IgG1, kappa, V domains shown)
VH: B1 VH with D30E, H104G
VL: not shown
notes: also called P1-070886
B11: P1-068761_E100fF (antibody, human IgG1, kappa, V domains shown)
VH: B1 VH with D30E, Y32E, E110F
VL: not shown
notes: also called P1-070874
B12: P1-068767_E55A_E100fF (antibody, human IgG1, kappa, V domains shown)
VH: B1 VH with D30E, N52D, E56A, E57N, H104G, E110F, V112D
VL: not shown
notes: also called P1-070918
B13: P1-068767_D52N_E100fF (antibody, human IgG1, kappa, V domains shown)
VH: B1 VH with D30E, E57N, H104G, E110F, V112D
VL: not shown
notes: also called P1-070928
B14: P1-068767_E30D_D52N (antibody, human IgG1, kappa, V domains shown)
VH: B1 VH with E57N, H104G, V112D
VL: not shown
notes: also called P1-070914
B15: P1-068767_E30D (antibody, human IgG1, kappa, V domains shown)
VH: B1 VH with N52D, E57N, H104G, V112D
VL: not shown
notes: also called P1-070904
B16: P1-068767_E30D_E55A (antibody, human IgG1, kappa, V domains shown)
VH: B1 VH with N52D, E56A, E57N, H104G, V112D
VL: not shown
notes: also called P1-070922
B17: P1-072006 (P1-061029_Y32E) (antibody, human IgG1, kappa, V domains shown)
VH: B1 VH with Y32E, E56A, E57N, H104G, E110F
VL: not shown
notes: also called P1-72006
B18: P1-071759 (P1-061029_HC_K16R, FW revertant) (antibody, V domains shown)
VH: B1 VH with K16R, E56A, E57N, H104G, E110F
VL: not shown
notes: VH/VL only
B19: P1-071761 (P1-061029_HC_T84A, FW revertant) (antibody, V domains shown)
VH: B1 VH with E56A, E57N, T88A, H104G, E110F
VL: not shown
notes: VH/VL only
B20: P1-072002 (P1-061029_F100fE) (antibody, human IgG1, kappa, V domains shown)
VH: B1 VH with E56A, E57N, H104G
VL: not shown
notes: also called P1-72002
B21: P1-071757 (P1-061029_HC_K16R_T84A, FW revertant) (antibody, V domains shown)
VH: B1 VH with K16R, E56A, E57N, T88A, H104G, E110F
VL: not shown
notes: VH/VL only
B22: P1-068767_E30D_E100fF (antibody, human IgG1, kappa, V domains shown)
VH: B1 VH with N52D, E57N, H104G, E110F, V112D
VL: not shown
notes: also called P1-070924
B23: P1-068767_E100fF (antibody, human IgG1, kappa, V domains shown)
VH: B1 VH with D30E, N52D, E57N, H104G, E110F, V112D
VL: not shown
notes: also called P1-070910

The first assay deals with T1, monovalent hVISTA-ECD (amino acids 32-193 of SEQ ID NO: 1 with a 7xHis tail) (human, UniProt Q9H7M9 33-193).
T1 construct: also called huVISTA-His; human VISTA-ECD
The assay can be described thus: SPR, mAb captured on Protein A, hVISTA-ECD analyte, 37 C, pH 6.7. Here is the method:
(§1) Binding kinetics were measured using a Biacore® T100 instrument (GE Healthcare). Protein A (ThermoFisher Scientific catalog #21181) was diluted to 20 μg/ml in 10 mM sodium acetate pH 4.5 and immobilized onto flow cells of a CM5 biosensor following the manufacturer's amine coupling protocol (GE Healthcare), targeting 2,000 RU immobilization density of Protein A per flow cell. The assay was conducted at 37° C. using PBST (137 mM sodium chloride, 2.7 mM potassium chloride, 10 mM phosphate buffer, 0.05% Tween 20) running buffer at pH 7.4, 6.7 and 6.0. Antibodies were diluted to 25 nM in PBST pH 7.4, and were captured across active biosensor flow cells at 5 ul/min for 40 seconds. A concentration series of 100-10 nM monovalent hVISTA-ECD (SEQ ID NO: 325) was prepared in pH 7.4, 6.7 and 6.0 running buffers, and was injected over the captured antibodies at 40 ul/min to measure association and dissociation. Two 15 second injections of 10 mM glycine pH 1.5 were used to regenerate the Protein A capture surface between assay cycles. Rate constants ka (kon) and kd (koff) were derived from reference flow cell and 0 nM blank-subtracted sensorgrams, and were fit to a 1:1 binding model in Biacore® T200 Evaluation Software v.2.0.
(§2) The affinity constant, KD was calculated as the ratio of rate constants koff/kₒₙ for each VISTA antibody. The % Rmax was calculated to compare how pH affects an antibody's binding capacity for VISTA, and represents the measured maximal VISTA binding response relative to the expected maximal VISTA binding response. The % Rmax is defined as the ratio of the reference-subtracted ‘binding’ report point response at the end of the 100 nM VISTA injection for each antibody (Rmax) relative to the expected VISTA binding response (Rexp). Rexp is calculated as Rexp=[(VISTA-ECD molecular weight/mAb molecular weight)×(mAb ‘capture’ report point response (RUs)]×2 binding sites per mAb.
A general note: In SPR one partner is held on a chip, and binding of the other changes the refractive index at the surface.
A word on the koff: it is the rate constant with which the complex falls apart. As for B1, the koff was 0.00099 s⁻¹.

As to B2, the koff is 0.00064 s⁻¹.

As for B3, the koff worked out at 0.00061 s⁻¹.

Turning to B4, the koff worked out at 0.00057 s⁻¹.

In turn, B5 had a koff of 0.00083 s⁻¹.

Regarding B6, the koff turned out to be 0.00028 s⁻¹.

In the case of B7, the koff is 0.0006 s⁻¹.

Molecule B8 came in with a koff of 0.0004 s⁻¹.

Regarding B9, the koff came to 0.00095 s⁻¹.

As to B10, the off-rate constant (koff) was 0.0013 s⁻¹.

As for B11, the koff was determined as 0.00022 s⁻¹.

A further assay concerns the target T1, monovalent hVISTA-ECD (amino acids …). The assay can be described thus: SPR, mAb captured on Protein A, hVISTA-ECD analyte, 37 C, pH 6.0. Here is the method:
as §1, §2
B12 showed a koff of 0.013 s⁻¹.

Molecule B13 had a koff of 0.066 s⁻¹.

Take B14: the koff came out at 0.0023 s⁻¹.

B15 gave a koff of 0.0032 s⁻¹.

For B16, the koff turned out to be 0.0035 s⁻¹.

Another assay shares this target. The assay can be described thus: SPR, mAb on Protein A, 37C, pH 7.4. Here is the method:
(§3) Binding of several preparations of each of the '029 progeny clones and of the parent '029 antibodies, formatted as IgG1.3 antibodies, to human VISTA at pH 6.0 and 7.4 was measured by Surface plasmon resonance (SPR). SPR analysis was performed to measure koff and KD binding affinity measurements for VISTA Abs at acidic and neutral pHs using a Biacore® T100 instrument (GE Healthcare). Protein A (ThermoFisher Scientific catalog #21181) was diluted to 20 μg/ml in 10 mM sodium acetate pH 4.5 and immobilized onto flow cells of a CM5 biosensor following the manufacturer's amine coupling protocol (GE Healthcare), targeting 2,000 RU immobilization density of Protein A per flow cell. SPR experiments were conducted at 37° C. using PBST (137 mM sodium chloride, 2.7 mM potassium chloride, 10 mM phosphate buffer, 0.05% Tween® 20) running buffer at pH 7.4 and 6.0. Antibodies were diluted to 25 nM in PBST pH 7.4, and were captured across active biosensor flow cells at 5 ul/min for 60 seconds. A concentration series of 50-5 nM monovalent hVISTA-ECD (SEQ ID NO: 325) was prepared in pH 7.4 and 6.0 running buffers, and was injected over the captured antibodies at 40 ul/min to measure association and dissociation. Two 15 second injections of 10 mM glycine pH 1.5 were used to regenerate the Protein A capture surface between assay cycles. Rate constants ka (kₒₙ) and kd (koff) were derived from reference flow cell and 0 nM blank-subtracted sensorgrams, and were fit to a 1:1 binding model in Biacore® T200 Evaluation Software v.2.0. The affinity constant, KD was calculated as the ratio of rate constants koff/kₒₙ for each VISTA antibody.
Usually Kd stands for a measure of binding affinity in units of concentration. By kon is commonly meant the rate constant with which the complex forms. For B17, the Kd was 540 nM, the koff is 0.0063 s⁻¹ and the kon was 12000 M⁻¹ s⁻¹.

Molecule B18 gave a Kd of 46 nM, an off-rate (koff) of 0.006 s⁻¹ and a kon of 130000 M⁻¹ s⁻¹.

B19 showed a dissociation constant (Kd) of 40 nM, an off-rate (koff) of 0.006 s⁻¹ and a kon of 150000 M⁻¹ s⁻¹.

B20 gave a dissociation constant Kd of 190 nM, an off-rate constant (koff) of 0.0085 s⁻¹ and a kon of 44000 M⁻¹ s⁻¹.

B21 registered a dissociation constant (Kd) of 45 nM, a koff of 0.0059 s⁻¹ and a kon of 130000 M⁻¹ s⁻¹.

A further assay has the same target. Kind of assay: SPR, mAb captured on Protein A, hVISTA-ECD analyte, 37 C, pH 6.7. The source holds these as a separate data set. Here is the method:
as §1, §2
For the molecule B22, the off-rate constant (koff) turned out to be 0.027 s⁻¹.

Take B23: the koff came to 0.026 s⁻¹.

The target is the same in the next assay. Kind of assay: SPR, mAb on Protein A, 37C, pH 6.0. Here is the method:
as §3
The molecule B17 gave a Kd of 3.5 nM, a koff of 0.0012 s⁻¹ and a kon of 340000 M⁻¹ s⁻¹.

B18 displayed an equilibrium dissociation constant (Kd) of 7.4 nM, a koff of 0.0059 s⁻¹ and an on-rate (kon) of 800000 M⁻¹ s⁻¹.

In the case of B19, the Kd is 6.9 nM, the off-rate constant (koff) was determined as 0.006 s⁻¹ and the kon amounted to 870000 M⁻¹ s⁻¹.

In turn, B20 gave an equilibrium dissociation constant (Kd) of 2.5 nM, a koff of 0.0016 s⁻¹ and a kon of 650000 M⁻¹ s⁻¹.

As to B21, the Kd was determined as 7.3 nM, the koff came to 0.0059 s⁻¹ and the kon came out at 810000 M⁻¹ s⁻¹.

The next assay shares this target. Kind of assay: SPR, mAb captured on Protein A, hVISTA-ECD analyte, 37 C, pH 6.0. This is another data set of the same source. As to the method: as §1, §2
The molecule B1 came in with a koff of 0.00071 s⁻¹.

B2 had a koff of 0.00041 s⁻¹.

For B3, the koff was found to be 0.00038 s⁻¹.

Molecule B4 had an off-rate constant (koff) of 0.00033 s⁻¹.

B5 showed a koff of 0.0007 s⁻¹.

As for B6, the off-rate constant (koff) amounted to 0.00018 s⁻¹.

In turn, B7 had a dissociation rate constant (koff) of 0.00057 s⁻¹.

Regarding B8, the koff was determined as 0.00021 s⁻¹.

Turning to B9, the dissociation rate constant (koff) came out at 0.0011 s⁻¹.

The molecule B10 returned a koff of 0.00092 s⁻¹.

The molecule B11 had an off-rate constant (koff) of 0.00013 s⁻¹.

A further assay shares this target. Kind of assay: SPR, mAb captured on Protein A, hVISTA-ECD analyte, 37 C, pH 7.4. As to the method: as §1, §2
B1 showed a koff of 0.0035 s⁻¹.

The molecule B2 yielded an off-rate constant (koff) of 0.0025 s⁻¹.

As to B3, the koff is 0.003 s⁻¹.

B4 yielded an off-rate constant (koff) of 0.0035 s⁻¹.

Turning to B5, the koff came to 0.0032 s⁻¹.

As for B6, the koff is 0.0017 s⁻¹.

As to B7, the off-rate (koff) was 0.0027 s⁻¹.

B8: the off-rate (koff) is 0.0023 s⁻¹.

Consider B9, for which the koff worked out at 0.0019 s⁻¹.

With B10, the koff stood at 0.0055 s⁻¹.

Turning to B11, the off-rate constant (koff) stood at 0.0013 s⁻¹.
